This note sets out measurements from paper PMC7572768 (Biochemistry, 2020).

Some targets named below: cdMMP-14 N231A (Homo sapiens, UniProt P50281, N231A); cdMMP-14 F198A (Homo sapiens, UniProt P50281, F198A); cdMMP-14 F260A (Homo sapiens, UniProt P50281, F260A).
Holding throughout (assay): ELISA
For orientation: An ELISA detects its analyte on a solid surface through an enzyme-linked reagent.

For assay [1], the target named is cdMMP-14 P259 alanine mutant (Homo sapiens, UniProt P50281, P259 to Ala).

B1: Fab 2B5 (Fab, V domains shown)
VH: EVQLVESGGGLVQPGGSLRLSCAASGFNLSYSSMHWVRQAPGKGLEWVASIYPYSGYTYYADSVKGRFTISADTSKNTAYLQMNSLRAEDTAVYYCARIGVNAWAVKMSQRMLATRGSGWYVMDYWGQGTLVTVSS
VL: DIQMTQSPSSLSASVGDRVTITCRASQSVSSAVAWYQQKPGKAPKLLIYSASSLYSGVPSRFSGSRSGTDFTLTISSLQPEDFATYYCQQSSSYPYSPITFGQGTKVEIK
In the case of B1, the “fold weakening of IC50 against cdMMP-14 wt” value with cdMMP-14 N231A was determined as 14 fold.

B2: Fab 3E2 (Fab, V domains shown)
VH: EVQLVESGGGLVQPGGSLRLSCAASGFNIYYYSIHWVRQAPGKGLEWVASIYPYSSYTYYADSVKGRFTISADTSKNTAYLQMNSLRAEDTAVYYCARGIKGLVFTGSQMKMLRRGNYNWYVMDYWGQGTLVTVSS
VL: DIQMTQSPSSLSASVGDRVTITCRASQSVSSAVAWYQQKPGKAPKLLIYSASSLYSGVPSRFSGSRSGTDFTLTISSLQPEDFATYYCQQSSYSLITFGQGTKVEIK
For orientation: IC50 means the concentration needed to halve the response being measured. Lower therefore signals greater potency in that assay. B2: the IC50 (with cdMMP-14 F198A; in assay [1]) was > 900 nM throughout.

B3: Fab 3E9 (Fab, V domains shown)
VH: EVQLVESGGGLVQPGGSLRLSCAASGFNLYYSSMHWVRQAPGKGLEWVASIYPSYGSTYYADSVKGRFTISADTSKNTAYLQMNSLRAEDTAVYYCARNGRYPGFLKRAHKRLLNFKAYVMDYWGQGTLVTVSS
VL: DIQMTQSPSSLSASVGDRVTITCRASQSVSSAVAWYQQKPGKAPKLLIYSASSLYSGVPSRFSGSRSGTDFTLTISSLQPEDFATYYCQQGSWYLITFGQGTKVEIK
For B3, in the assay with cdMMP-14 F260A, the “fold increase in IC50 against cdMMP-14 wt” value came out at 33 fold.
